Source: the nanobody polyreactivity screen of Harvey et al. (2022)

Assay: yeast display, Sf9 membrane polyspecificity reagent, FACS + sequencing; frameworks hold sequencing errors
Summary of the method: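 Genes from sorted yeast were amplified by colony PCR, read by MiSeq 2 × 250 sequencing and filtered on CDR length. These cells carried a synthetic nanobody library in Saccharomyces cerevisiae BJ5465 and were sorted by FACS into low and high (top ~1%) gates on anti-HA and streptavidin fluorescence. Polyreactivity is labelled according to the gate of origin.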

With “QVQLVESGGGLVQAGGSLRLSCAASGYIFTRNAMGWYRQAPGKERELVAAISRSGGSTYYADSLKGRFTISRDNAKNTVYLQMNSLKPEDTSVYYCAAVDKGRPGRDYWGQGTQVTVSS” the “polyreactivity (PSR sort gate)” value was “low polyreactivity”.
With “QVQLVESGGGLVQAGGSLRLSCAASGYIFTSYAMGWYRQAPGKERELVATITTGGSTYYADSVKGRFTISRDNAKNTVYLQMNSLKPEDTAVYYCNAVLHGWYDYWGQGTQVTVSS” the “polyreactivity (PSR sort gate)” value was “low polyreactivity”.
For “QVQLVESGGGLVQAGGSLRLSCAASGYIFTVYAMGWYRQAPGKERELVAAINWSDGSTYYADSVKGRFTISRDNAKNTVYLQMNSLKPEDTAVYYCATEYWYGIYGYDYWGQGTQVSVSS”, the “polyreactivity (PSR sort gate)” value was “high polyreactivity”.
For “QVQLVESGGGLVQAGGSLRLSCAASGYIFTYYAMGWYRQAPGKERELVAAISGSDGNTYYADSVKGRFTISRDNAKNTVYLQMTSLKPEDTAVYYCAKSGGLTFRSQRYDYWGQGTQVTVSS”, the “polyreactivity (PSR sort gate)” value was “low polyreactivity”.
With “QVQLVESGGGLVQAGGSLRLSCAASGYIFVGNAMGWYRQAPGKERELVATIRSSTGNTYADSVKGRFTISRDNAKNTVYLQMNSLKPEDTAVYYCATVYELPGWGREYGYWGQGTQVTVSS” the “polyreactivity (PSR sort gate)” value was “low polyreactivity”.
With “QVQLVESGGGLVQAGGSLRLSCAASGYIFVSNAMGWNRQEPGKERELVAPISGSGGSTYYADSVKGRFTISRDIAKNTVYLQMNSLKPEDTAVYSCAADYATVTWRGIAYDYWGQGTQVTVSS” the “polyreactivity (PSR sort gate)” value was “low polyreactivity”.
In the case of “QVQLVESGGGLVQAGGSLRLSCAASGYIFWENAMGWYRQAPGKERELVAAITVSGGGTYYADSVKGRFTISRDNAKNSVYLQMNSLKPEVTAVYYCNVYDKAPAYDYWGQGTQVTVSS”, the “polyreactivity (PSR sort gate)” value is reported as “low polyreactivity”.
For “QVQLVESGGGLVQAGGSLRLSCAASGYIFYANAMGWYRQPPGKERELVAAISWSGGSTYYADSVKGRFTISRDNAKNTVYLQMNSLKPEDTAVYYCAAAYYETPWDYYYWGQGTQVTVSS”, the “polyreactivity (PSR sort gate)” value was “low polyreactivity”.
In the case of “QVQLVESGGGLVQAGGSLRLSCAASGYIFYGYVMGWYRQAPGKERELVAGITYSGGGGTHYADSVKGRFTISRDNAKNTVYLQMNSLKPEDNAVYYCAKADPQLNRTYYSYGMDYWGQGTQVTVSS”, the “polyreactivity (PSR sort gate)” value is reported as “low polyreactivity”.
In the case of “QVQLVESGGGLVQAGGSLRLSCAASGYIFYHNTMGWYRQEPGKERELVAAITIGGRTYYADSVKGRFTISRDNAKNTVYLQMNSLKPEDTAVYYCATASYRNPSDYWGQGTQVSVSS”, the “polyreactivity (PSR sort gate)” value is reported as “high polyreactivity”.
With “QVQLVESGGGLVQAGGSLRLSCAASGYIFYTYAMGCYRQAPGKERELVAGISGSGGSTYYADSVKGRFTISRDNAKNTVYLQMNSLNPEETAVYYCAKDIYQIGYRRYDSWGQGTQVTVSS” the “polyreactivity (PSR sort gate)” value was “low polyreactivity”.
For “QVQLVESGGGLVQAGGSLRLSCAASGYIFYVYAMGWYRQAPGKERELVAAINSGDITYYADSVKGRFTISRDNAKNTVYLQMNSLKPEDTAVYYCATVLILIYDYWGQGTQVTVSS”, the “polyreactivity (PSR sort gate)” value was “low polyreactivity”.
With “QVQLVESGGGLVQAGGSLRLSCAASGYIFYYYTMGWYRQATGKEREFVAAISYSVGSTYADSVKGRFTISRDNAKNTVYLQMNSLKPEDTAVYYCNAVTIRNVYYSGGYWGQGTQVTVSS” the “polyreactivity (PSR sort gate)” value was “high polyreactivity”.
For “QVQLVESGGGLVQAGGSLRLSCAASGYIIGGNAMGWYRQAPGKERELVAVISSRGGRTYYADSVKGRFTISRDNAKNTVYLQMNSLKPEDTAVSYCNRDFSYQYKRDYWGQGTQVTVSS”, the “polyreactivity (PSR sort gate)” value was “high polyreactivity”.
With “QVQLVESGGGLVQAGGSLRLSCAASGYIITSNAMGWYRQAPGKERELVAAITYSDGSTYYADSVKGRFTISRDNAKNTVYLQMNSLIPEDTAVYYCAVDRDYNVAVLRDLDYWGQGTQVTVSS” the “polyreactivity (PSR sort gate)” value was “low polyreactivity”.
In the case of “QVQLVESGGGLVQAGGSLRLSCAASGYISFGYAMGWYRQAPGKEREFVAAISVGGGTTYYADSVKGRFTISRDNAKNTVYLQMNSLKPEDTAVYYCAVGKYNYRGSWDYYWGQGTQVTVSS”, the “polyreactivity (PSR sort gate)” value is reported as “high polyreactivity”.
For “QVQLVESGGGLVQAGGSLRLSCAASGYIVITYAMGRYRQAPGKERELVAAISRRGGRTYYADSVKGRFTISRDNAKNTVYLQMNSLKPEATAVYYCAADPATSVYGGLNYWGQGTQVTVSS”, the “polyreactivity (PSR sort gate)” value was “high polyreactivity”.
In the case of “QVQLVESGGGLVQAGGSLRLSCAASGYNFARYAMGWDRQAPGKEREFVAAITWSGGTTYYADSVKGRFTISRDNAKNTVYLQMNRLKPEDTAVYYCAARGYYTEAASSKRGNYWGQGTQVTVSS”, the “polyreactivity (PSR sort gate)” value is reported as “high polyreactivity”.
With “QVQLVESGGGLVQAGGSLRLSCAASGYNFAYYAMGWYRQAPGTERELVAAISWSGSSTYYADSVKGRFTISRDNAKNTVYLQMNSLKPEDTAVYYCAKGYTSYNLGKYGYCGQGTQVTVSS” the “polyreactivity (PSR sort gate)” value was “low polyreactivity”.
In the case of “QVQLVESGGGLVQAGGSLRLSCAASGYSFYYYAMVWYRQAPGKERELVAAITSGDSTYADSVKGRFTISRDNAKNTVYLQMNSLKPEDTAVYYCNRDTDYGFDYWGQGTQVTVSS”, the “polyreactivity (PSR sort gate)” value is reported as “low polyreactivity”.
For “QVQLVESGGGLVQAGGSLRLSCAASGYTFASYTMGWYRQAPGKERELVATISRGGGRTYYADSVKGRFTISRDNAKNTVYLQMNSLKPEDTAVYYCARPSTFYTGYRQAHFDYWGQGTQVTVSS”, the “polyreactivity (PSR sort gate)” value was “high polyreactivity”.
In the case of “QVQLVESGGGLVQAGGSLRLSCAASGYTFDANAMGWYRQAPGKERELVAAIRSGGGLTYYADSVKGRFTISRDNAKNTVYLQMNSLKPEDTAVYYCAAVTRRDSFEYWGQGTQVTVSS”, the “polyreactivity (PSR sort gate)” value is reported as “low polyreactivity”.
With “QVQLVESGGGLVQAGGSLRLSCAASGYTFDAYAMGWYRQAPGKERELVAAISGDSTNYADSVKGRFTISRDNAKNTVYLQMNSLKPEDTAVYYCAAAFWYDYWEKYDYWGQGTQVTVSS” the “polyreactivity (PSR sort gate)” value was “low polyreactivity”.
In the case of “QVQLVESGGGLVQAGGSLRLSCAASGYTFDAYSMGWYRQAPGKERELVAAITTNGGSTYYADSVKGRFTISRDNAKNTVYLQMNSLKPEDTAVYYCNAEYSYEGRYPYDYWGQGTQVTVSS”, the “polyreactivity (PSR sort gate)” value is reported as “low polyreactivity”.
For “QVQLVESGGGLVQAGGSLRLSCAASGYTFDDYEMGWYRQAPGKERELVAAISRGGSTYYADSVKGRFTISRDNEKNTVYFQMNSLKPEDTAVYYCGAVYRVRKITYDYWGQGTQVTVSS”, the “polyreactivity (PSR sort gate)” value was “high polyreactivity”.
With “QVQLVESGGGLVQAGGSLRLSCAASGYTFDGYAMGRYRQAPGKERELVAAINSGGGTYYADSVKGRFTISRDNAKNTVYLQMNSLKPEDTAVYYCAKYTYDYWGQGTQVTVSS” the “polyreactivity (PSR sort gate)” value was “low polyreactivity”.
For “QVQLVESGGGLVQAGGSLRLSCAASGYTFDWYAMGWYRQAPGKERELVAAISYSTGSTYYADSVKGRFTISRDNAKNTVYLQMHSLKPEDTAVYYCATRYWRSGYDWPYGSWGQGTQVTVSS”, the “polyreactivity (PSR sort gate)” value was “high polyreactivity”.
For “QVQLVESGGGLVQAGGSLRLSCAASGYTFEYNAMGWYRQATGKEREFVATITASGDSTYYADSVKGRFTISRDNAKNTVYLQMNSLKPEDTAVYYCATEKRDVYFTAKYDYWGQGTQVTVSS”, the “polyreactivity (PSR sort gate)” value was “low polyreactivity”.
In the case of “QVQLVESGGGLVQAGGSLRLSCAASGYTFFRNTMGWYRQAPGKERELVAVITKSGGSTYYADSVKGRFTISRDNAKNTVYLQMNSLKPEDTAVYYCNAVNALRNTEYNYWGQGTQVTVSS”, the “polyreactivity (PSR sort gate)” value is reported as “high polyreactivity”.
In the case of “QVQLVESGGGLVQAGGSLRLSCAASGYTFFRYAMGWYRQAPGKERELVAAISGGGGSTYYADSVKGRFTISRDYAKNTVYLQMNSLKPEDTAVYYCAAESQAYSLYWGQGTQVTVSS”, the “polyreactivity (PSR sort gate)” value is reported as “high polyreactivity”.
For “QVQLVESGGGLVQAGGSLRLSCAASGYTFGLYTMGWYRQAPGKEREFVATIDWSEGGTHYADSVKGRFTISRDIAKISVYLQMNSLKPEYTAVYYCNADWYAYPYGYWGQGTQVTVSS”, the “polyreactivity (PSR sort gate)” value was “low polyreactivity”.
In the case of “QVQLVESGGGLVQAGGSLRLSCAASGYTFGQYAMGWYRQAPGKEREMVAAISSGGGSTYYADSVKGRFTISRDNAKTTVYLQMNSLKPEDTAVYYCAAQYLYPTYRYGYWGQGTQVTVSS”, the “polyreactivity (PSR sort gate)” value is reported as “high polyreactivity”.
